Measurements published in patent publication US20150259419A1 (PROTHENA BIOSCIENCES, published 2015).

T1: combination of human MCAM domains 1 and 2 (MCAMhFc domain construct) (human, UniProt P43121 19-242)
T1 construct: not shown: human Fc portion
T1 sequence: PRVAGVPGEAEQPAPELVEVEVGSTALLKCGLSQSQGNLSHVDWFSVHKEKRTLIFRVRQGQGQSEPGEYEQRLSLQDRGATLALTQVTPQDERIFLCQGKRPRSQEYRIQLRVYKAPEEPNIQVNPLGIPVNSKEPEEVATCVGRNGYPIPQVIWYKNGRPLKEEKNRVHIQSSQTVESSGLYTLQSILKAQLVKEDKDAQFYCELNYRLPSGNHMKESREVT

T2: human MCAM domain 2 (MCAMhFc domain construct) (human, UniProt P43121 139-242)
T2 construct: not shown: human Fc portion
T2 sequence: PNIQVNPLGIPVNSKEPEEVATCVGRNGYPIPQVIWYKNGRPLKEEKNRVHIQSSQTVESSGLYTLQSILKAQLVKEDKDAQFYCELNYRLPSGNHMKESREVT

T3: human MCAM domain 1 (MCAMhFc domain construct) (human, UniProt P43121 19-129)
T3 construct: also called amino acids 19-129; not shown: human Fc portion (captured on anti-human IgG Fc biosensors)
T3 sequence: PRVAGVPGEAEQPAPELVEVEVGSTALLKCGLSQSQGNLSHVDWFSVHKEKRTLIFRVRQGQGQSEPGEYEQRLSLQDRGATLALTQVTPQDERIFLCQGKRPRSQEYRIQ

T4: full length MCAMhFc protein (extracellular domain of human MCAM fused to human IgG) (human, UniProt P43121 24-559)
T4 construct: also called hMCAM-Fc; Human MCAM-Fc protein; not shown: human IgG (Fc) portion
T4 chain: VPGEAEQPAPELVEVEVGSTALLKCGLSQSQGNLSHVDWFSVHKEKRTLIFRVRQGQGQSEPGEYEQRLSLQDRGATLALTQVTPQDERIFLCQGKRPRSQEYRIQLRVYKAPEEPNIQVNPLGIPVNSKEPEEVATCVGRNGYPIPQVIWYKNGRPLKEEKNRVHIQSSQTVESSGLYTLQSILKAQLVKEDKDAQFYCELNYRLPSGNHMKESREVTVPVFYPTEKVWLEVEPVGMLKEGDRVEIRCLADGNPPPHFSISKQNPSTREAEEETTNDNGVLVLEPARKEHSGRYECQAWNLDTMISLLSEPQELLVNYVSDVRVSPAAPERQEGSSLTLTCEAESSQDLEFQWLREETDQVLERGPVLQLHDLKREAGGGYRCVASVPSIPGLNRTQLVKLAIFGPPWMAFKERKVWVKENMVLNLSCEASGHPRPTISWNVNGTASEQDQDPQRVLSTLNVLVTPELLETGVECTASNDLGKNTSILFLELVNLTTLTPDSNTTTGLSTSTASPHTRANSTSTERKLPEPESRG

T5: human MCAM domain 3 (MCAMhFc domain construct) (human, UniProt P43121 244-321)
T5 construct: also called amino acids 244-321; not shown: human Fc portion
T5 sequence: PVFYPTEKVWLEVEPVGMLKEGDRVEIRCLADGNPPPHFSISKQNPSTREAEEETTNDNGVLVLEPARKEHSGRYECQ

B1: human MCAM, full length, expressed on transfected cells (receptor)
chain: VPGEAEQPAPELVEVEVGSTALLKCGLSQSQGNLSHVDWFSVHKEKRTLIFRVRQGQGQSEPGEYEQRLSLQDRGATLALTQVTPQDERIFLCQGKRPRSQEYRIQLRVYKAPEEPNIQVNPLGIPVNSKEPEEVATCVGRNGYPIPQVIWYKNGRPLKEEKNRVHIQSSQTVESSGLYTLQSILKAQLVKEDKDAQFYCELNYRLPSGNHMKESREVTVPVFYPTEKVWLEVEPVGMLKEGDRVEIRCLADGNPPPHFSISKQNPSTREAEEETTNDNGVLVLEPARKEHSGRYECQAWNLDTMISLLSEPQELLVNYVSDVRVSPAAPERQEGSSLTLTCEAESSQDLEFQWLREETDQVLERGPVLQLHDLKREAGGGYRCVASVPSIPGLNRTQLVKLAIFGPPWMAFKERKVWVKENMVLNLSCEASGHPRPTISWNVNGTASEQDQDPQRVLSTLNVLVTPELLETGVECTASNDLGKNTSILFLELVNLTTLTPDSNTTTGLSTSTASPHTRANSTSTERKLPEPESRGVVIVAVIVCILVLAVLGAVLYFLYKKGKLPCRRSGKQEITLPPSRKTELVVEVKSDKLPEEMGLLQGSSGDKRAPGDQGEKYIDLRH
notes: CHO cells transfected with the full length human MCAM gene; also called hMCAM; CD146

How the values were obtained:
recombinant laminin 511 = molecular target: T6, recombinant laminin 511 (UniProt O15230 36-3695; P07942 22-1786; P11047 34-1609); assay: CHO cells transfected with human MCAM incubated with laminin, pan-laminin antibody, flow cytometry
T6 construct: also called laminin 10 (α5β1γ1)

[1] = molecular target: T1, combination of human MCAM domains 1 and …; assay: ForteBio Octet Red, MCAMhFc domains on anti-human IgG Fc biosensors
Excerpt: (§1) The following protocol was used: ForteBio anti-human IgG Fc biosensors were used to immobilize various MCAMhFc domains including full length MCAMhFc protein on to biosensor surface. […] After loading these samples into a black 96 well plate, the Octet Red was programmed as follows: 60 seconds for baseline #1; 180 seconds for loading various domains; 60 seconds for baseline #2; 180 seconds for association of antibody to domain; and 240 seconds for dissociation of antibody from domain.
(§2) 1. MCAMhFc final concentration@5 ug/ml [0374] […] 3. ForteBio anti-human IgG Fc Capture (AHC) biosensors for kinetics experiments, cat #18-5060 [0376] 4. Block 96 well plate from Greiner Bio-one, cat #655209 [0377] 5. ForteBio Octet Red machine [0378] 6. Fresh tissue culture medium, DMEM with 20% FCS, was used as buffer for dilution

[2] = molecular target: T2, human MCAM domain 2 (MCAMhFc domain …); assay: as above
Excerpt: as §1, §2

[3] = molecular target: T3, human MCAM domain 1 (MCAMhFc domain …); assay: as above
Excerpt: as §1, §2

[4] = molecular target: T4, full length MCAMhFc protein …; assay: summary of Examples 2 and 3
[5] = molecular target: B1; assay: blocking of laminin 411 (20 ug/ml) binding to CHO cells expressing human MCAM, flow cytometry
Method: The 87 independent mouse fusion clones and 26 independent rat fusion clones described in Example 1 above as being capable of (i) binding to human MCAM, and (ii) blocking the interaction between human MCAM and the α-4 chain of laminin were further characterized as follows. First, IC50 quantitation for the ability of the monoclonal antibody to block the binding of human MCAM to the α-4 chain of laminin was determined as follows. CHO cells expressing human MCAM were incubated with an anti-human MCAM antibody (at various concentrations) for 30 minutes at 4 degrees Celsius. […] Unbound laminin was then washed away, and the laminin bound to the surface of the cells was detected with fluorescently labeled anti-laminin antibodies. After washing, the amount of laminin bound to the surface was detected by flow cytometry, and IC50s were calculated based on the mean fluorescent intensity.
Amino acid and nucleic acid sequences of the heavy and light chains of these antibodies, and their hypervariable regions, are provided in SEQ ID NOs:29-92. […] As such, each of these specific monoclonal antibodies was very capable of binding to human MCAM and inhibiting the interaction of cell-expressed human MCAM with its α-4 laminin binding ligand.

[6] = molecular target: T5, human MCAM domain 3 (MCAMhFc domain …); assay: ForteBio Octet Red, MCAMhFc domains on anti-human IgG Fc biosensors, antibody at 5 ug/ml
Excerpt: as §1, §2

Row | binding result (recombinant laminin 511) | binding result [1] | binding result [2] | binding result [3] | binding result [4] | IC50 [5] | binding result [6] | Binder
1 | no binding (tested: 10 µg/ml) | – | – | – | – | – | – | B1
2 | – | no binding (tested: 5 ug/ml) | no binding (tested: 5 ug/ml) | no binding (tested: 5 ug/ml) | binds | 0.545 µg/mL | binds | mouse anti-human MCAM monoclonal antibody clone 1749.1.3 (antibody, V domains shown, Mouse hybridoma antibody) VH: DVKLVESGGDLVKPGGSLKLSCAASGFTFSSYIMSWVRQTPEKRLEWVATISSGGSSTYYPDSVKGRFTISRDNAKNTLYLQMSSLKSEDTAMYYCTRDDDYDVKVFAYWGQGTLVTVSA VL: DIVMSQSPSSLAVSAGEKVTMNCKSSRSLLNSRIRKNYLAWYQQKPGQSPKLLIYWASTRESGVPDRFTGSGSGTDFTLTISSVQAEDLAVYYCKQSYNLLTFGAGTKLELK
